Measured values published in US20220041715A1.

How the values were obtained:
[1] = target: CoV-2 RBD (N354D, D364Y) (SARS-CoV-2) (UniProt P0DTC2); assay: ELISA
[2] = target: CoV-2 RBD (N354D) (SARS-CoV-2) (UniProt P0DTC2); assay: ELISA
[3] = target: CoV-2 RBD (V367F) (SARS-CoV-2) (UniProt P0DTC2); assay: ELISA
[4] = target: CoV-2 S (D614G) (SARS-CoV-2) (UniProt P0DTC2); assay: ELISA
[5] = target: CoV-2 S (R683A, R685A) (SARS-CoV-2) (UniProt P0DTC2); assay: ELISA
[6] = target: CoV-2 RBD (W436R) (SARS-CoV-2) (UniProt P0DTC2); assay: ELISA
[7] = target: spike of SARS-CoV-2 variant P.1 (Japanese/Brazilian) on pseudotype virus (SARS-CoV-2) (UniProt P0DTC2); assay: cell-based or functional assay
[8] = target: spike of SARS-CoV-2 variant B.1.1.7 (UK) on pseudotype virus (SARS-CoV-2) (UniProt P0DTC2); assay: cell-based or functional assay
[9] = target: spike of SARS-CoV-2 variant B.1.427/B.1.429 (California) on pseudotype virus (SARS-CoV-2) (UniProt P0DTC2); assay: cell-based or functional assay
[10] = target: spike of SARS-CoV-2 variant B.1.351 (South Africa) on pseudotype virus (SARS-CoV-2) (UniProt P0DTC2); assay: cell-based or functional assay

Substance | EC50 [1] [mg/L] | EC50 [2] [mg/L] | EC50 [3] [mg/L] | EC50 [4] [mg/L] | EC50 [5] [mg/L] | EC50 [6] [mg/L] | pseudotype virus neutralization IC50 relative to Wuhan-Hu-1 [7] [fold] | pseudotype virus neutralization IC50 relative to Wuhan-Hu-1 [8] [fold] | pseudotype virus neutralization IC50 relative to Wuhan-Hu-1 [9] [fold] | pseudotype virus neutralization IC50 relative to Wuhan-Hu-1 [10] [fold]
IVIG (Gamunex; Grifols) (antibody) | 1320 | 1240 | 1130 | 1330 | 2840 | 1240 |  |  |  | 
rCIG (recombinant coronavirus-2 immune globulin; recombinant anti-coronavirus 19 hyperimmune gammaglobulin) (antibody) | 0.08 | 0.07 | 0.07 | 0.05 | 0.09 | 0.07 | < 6 | < 6 | < 6 | < 6
